Experimental findings from article PMC5818487 are described below.

What all share (assay): SPR; Biacore T200; ICAM-1-Fc proteins captured on Protein A on a CM5 chip (1108 ± 108 RU); DBLβ domains flowed as twofold dilution series 1000-7.81 nM at 30 µl/min, 240 s association, 600 s dissociation; 10 mM HEPES pH 7.2, 250 mM NaCl, 0.05% Tween-20; global 1:1 model; 1 mg/ml ssDNA added to BC12a DBLβ
(In general: In SPR one partner is held on a chip, and binding of the other changes the refractive index at the surface.)

The target in experiment [1] is ICAM-1 domains 1-5 Fc fusion protein (reference, wild type) (UniProt P05362).
Experiment [2] addresses ICAM-1 L44A mutant Fc fusion protein (UniProt P05362).
Experiment [3] addresses ICAM-1 Kilifi (K29M) Fc fusion protein (UniProt P05362).
In experiment [4] the target is ICAM-1 S22A mutant Fc fusion protein (UniProt P05362).
The target of experiment [5] is ICAM-1 L42A mutant Fc fusion protein (UniProt P05362).

Turning to “BC12a DBLβ domain (PfEMP1 of the dominantly expressed var gene of isolate BC12) (domain or fragment)”, in experiment [1], the Kd (commonly the concentration at which binding is half-saturated) was 197 nM; the koff (commonly the first-order rate constant of dissociation) stood at 0.000944 s⁻¹; the kon (in general, the rate constant with which the complex forms) came out at 4800 M⁻¹ s⁻¹.

On to “IT4var13 DBLβ domain (from UniProt A3R6S0 1-3274) (domain or fragment)”, for which the % ICAM-1^D1D5 binding in experiment [2] turned out to be 10%; in experiment [3], 8.9%; in experiment [4] it was 94.5%; in experiment [5], 3.1%. For the same substance, the results for the Kd in experiment [4] and in experiment [1] were 9.82 nM and 3.45 nM, respectively. Moreover, the koff in experiment [1] was 0.000125 s⁻¹. The kon in experiment [1] worked out at 36100 M⁻¹ s⁻¹.

Consider “J1a DBLβ domain (PfEMP1 of the dominantly expressed var gene of isolate J1) (domain or fragment)”, for which the % ICAM-1^D1D5 binding in experiment [2] was 2.7%; in experiment [3], 5.4%; in experiment [4] it was 10.9%; in experiment [5], 1.4%. Besides, the Kd in experiment [1] is 51.7 nM. Further, the koff in experiment [1] came out at 0.00153 s⁻¹. The on-rate (kon) in experiment [1] is 29600 M⁻¹ s⁻¹.
